Tests used:
[1] = system: T1, GST fusion protein carrying the SP3 motif of NFAT
T1 sequence: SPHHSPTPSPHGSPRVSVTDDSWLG

[2] = target: T2, GST fusion protein containing the NFAT2 phosphorylation site S324 flanked with 9-11 amino acids (UniProt O95644)
T2 sequence: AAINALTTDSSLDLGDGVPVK

[3] = target: T3, GST fusion protein containing the N-terminal regulatory domain (amino acids 1-319) of NFAT2 (UniProt O95644)
T3 sequence: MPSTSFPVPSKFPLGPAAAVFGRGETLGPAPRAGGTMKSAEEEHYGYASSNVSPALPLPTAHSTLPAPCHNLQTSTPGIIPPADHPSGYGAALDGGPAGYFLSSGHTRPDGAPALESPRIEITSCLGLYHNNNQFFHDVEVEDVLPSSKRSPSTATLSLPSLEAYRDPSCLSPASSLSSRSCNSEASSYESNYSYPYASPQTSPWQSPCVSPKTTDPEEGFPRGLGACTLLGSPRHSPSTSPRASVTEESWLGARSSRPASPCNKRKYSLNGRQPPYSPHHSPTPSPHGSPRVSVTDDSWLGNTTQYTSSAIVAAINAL

[4] = target: T4, GST fusion protein containing the NFAT2 phosphorylation site S151 flanked with 9-11 amino acids (UniProt O95644)
T4 sequence: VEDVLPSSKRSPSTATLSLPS

[5] = target: T5, GST fusion protein containing the NFAT2 phosphorylation site S161 flanked with 9-11 amino acids (UniProt O95644)
T5 sequence: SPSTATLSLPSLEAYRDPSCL

[6] = system: T6, GST fusion protein carrying the SP2 motif of NFAT
T6 sequence: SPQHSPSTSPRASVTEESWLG

IKKε purified from 293T cells
in vitro kinase assay [1]: IKKε efficiently phosphorylated the SP3 motif | in vitro kinase assay [2]: peptides containing three serines, except the peptides containing S^117, were phosphorylated by IKKε in vitro | in vitro kinase assay [3]: purified IKKε was sufficient to phosphorylate the N-terminal regulatory domain (amino acids 1-319) of NFAT2 by an in vitro kinase assay | in vitro kinase assay [4]: peptides containing three serines, except the peptides containing S^117, were phosphorylated by IKKε in vitro | in vitro kinase assay [5]: peptides containing three serines, except the peptides containing S^117, were phosphorylated by IKKε in vitro | in vitro kinase assay [6]: weakly the SP2 site

— patent publication US20160289684
